Data from article PMC6821881 (2019).
Where a chain is given by its changes, count along the chain named.

B1: 2L-1 (antibody, V domains shown)
VH: EVQLVQSGAEVKKPGASVKVSCKASGYTFTSGHTFPSYDINWVRQATGQGLEWMGWMNPNRGNTGYAQKFQGRVTMTRNTSINTAYMELSSLRSEDTAVYYCARVRSGTNYGSYYYYYYGMDVWGQGTTVTVSS
VL: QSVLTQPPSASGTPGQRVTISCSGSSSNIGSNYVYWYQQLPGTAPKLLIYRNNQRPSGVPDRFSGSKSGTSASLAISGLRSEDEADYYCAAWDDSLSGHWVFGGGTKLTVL
B2: 2L-8 (antibody, V domains shown)
VH: B1 VH
VL: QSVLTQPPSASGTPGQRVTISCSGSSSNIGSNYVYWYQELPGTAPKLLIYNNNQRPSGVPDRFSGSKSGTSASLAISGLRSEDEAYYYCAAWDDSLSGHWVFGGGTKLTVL
B3: 2L-11 (antibody, V domains shown)
VH: B1 VH
VL: YSVLTDHPSASGTPGQRVTISCSGSSSNIGSNYVYWYQELPGTAPKLLIYNNNQRPSGVPDRFSGSKSGTSASLAISGLRSEDEAYYYCAAWDDSLSGHWVFGGGTKLTVL
B4: 2L-3 (antibody, V domains shown)
VH: B1 VH
VL: B3 VL with Y1Q, D6H, H7R, V34G, E39Q, N51R, Y86D
B5: 2L-9 (antibody, V domains shown)
VH: B1 VH
VL: B3 VL with Y1S, D6Q, H7P, S27T, V34A, E39Y, N51R, S66F, I76V, Y86D
B6: 2L-2 (antibody, V domains shown)
VH: B1 VH
VL: B3 VL with Y1Q, D6H, H7R, T13H, S31N, E39Q, N51R, Y86D
B7: ZK2B10 (antibody, V domains shown)
VH: B1 VH
VL: SYELTQPPSASGTPGQRVTISCSGSSSNIGNNYVHWYQQLPGSAPKLLIYRNNQRPSGVPDRFSGSKSGTSGSLAISGLRSEDEADYYCASWDDSLSGHWVFGGGTKVTVL
B8: 2L-6 (antibody, V domains shown)
VH: B1 VH
VL: SVLQPQPPSASRHPGQRVTISCLHGSSSNIGNNYVSWYQQLPGTDPKLLIYRNNHAASGVPDRFSGSKSGTSASLAISGLRSEDEADYYCAAWDDSLSGHWVFGGGTKLTVL
B9: 2H-15 (antibody, V domains shown)
VH: EVQLVQSGAEVKKPGASVKVSCKASGYTFTSYDVNWVRQATGQGLEWMGWMNPNSGNTGYAQKFQGRVTMTRNTSISTAYMELSSLRSEDTAVYYCARVSSGSYYGSYYYYYYGMDVWGQGTTVTVSS
VL: B7 VL
B10: 2H-4 (antibody, V domains shown)
VH: B9 VH with E1Q, A9R, A24G, V34I, T41P, E89G
VL: B7 VL
B11: 2H-3 (antibody, V domains shown)
VH: B9 VH with E1Q, A9R, D33E, V34I
VL: B7 VL
B12: 2H-2 (antibody, V domains shown)
VH: QVQLVQSGAEVKKPGSSVKVSCKASGGTFSSYAISWVRQATGQGLEWMGGIIPIFGTANYAQKFQGRVTITADESTSTAYMELSSLRSEDTAVYYCARVSSGSYYGSYYYYYYGMDVWGQGTTVTVSS
VL: B7 VL
B13: 2H-5 (antibody, V domains shown)
VH: B9 VH with E1Q, K19N, S31M, V34I, A40T
VL: B7 VL
B14: 2H-6 (antibody, V domains shown)
VH: B9 VH with M51L, Q62E
VL: B7 VL
B15: 2H-1 (antibody, V domains shown)
VH: B9 VH with E1Q, V34I
VL: B7 VL
B16: 2H-14 (antibody, V domains shown)
VH: B9 VH with E1Q, Q3H, L4A, D33G, V34I
VL: B7 VL
B17: 2H-16 (antibody, V domains shown)
VH: B9 VH with E1Q, V34I, Y60C
VL: B7 VL
B18: 2H-9 (antibody, V domains shown)
VH: B9 VH with A9G, E10K, K12V, K13E, P14L, S31T, V34I
VL: B7 VL
B19: 2H-10 (antibody, V domains shown)
VH: B9 VH with E1Q, A9V, K19E, K23Q, Y27I, F29S, V34I, T41N
VL: B7 VL

The binders below were run against ZIKV E protein (GZ01) (Zika virus (strain GZ01)) (assay: ELISA).

Q: B1 was tested. Which EC50 did it give?
A: > 500 ng/mL

Q: Which EC50 does the source give for B2 here?
A: > 500 ng/mL

Q: How did the EC50 turn out when B3 was run?
A: > 500 ng/mL

Q: For B4, which EC50 is on record?
A: > 500 ng/mL

Q: B5 was tested. Which EC50 did it give?
A: > 500 ng/mL

Q: With B6 as the binder, how does the EC50 read?
A: 216 ng/mL

Q: B7 was tested. Which EC50 did it give?
A: 3.3 ng/mL

Q: How did the EC50 turn out when B8 was run?
A: 356 ng/mL

Q: For B9, which EC50 is on record?
A: 7.5 ng/mL

Q: Which EC50 does the source give for B10 here?
A: 6.5 ng/mL

Q: How did the EC50 turn out when B11 was run?
A: 23.7 ng/mL

Q: B12 was tested. Which EC50 did it give?
A: > 500 ng/mL

Q: B13 was tested. Which EC50 did it give?
A: 6.2 ng/mL

Q: With B14 as the binder, how does the EC50 read?
A: 4.6 ng/mL

Q: Which EC50 does the source give for B15 here?
A: 5.3 ng/mL

Q: Which EC50 does the source give for B16 here?
A: 242 ng/mL

Q: For B17, which EC50 is on record?
A: 5.8 ng/mL

Q: Which EC50 does the source give for B18 here?
A: 4.2 ng/mL

Q: B19 was tested. Which EC50 did it give?
A: 5.2 ng/mL

Biological target: T1, ZIKV E DIII protein (residues 301-403) (Zika virus (strain GZ01))
T1 chain: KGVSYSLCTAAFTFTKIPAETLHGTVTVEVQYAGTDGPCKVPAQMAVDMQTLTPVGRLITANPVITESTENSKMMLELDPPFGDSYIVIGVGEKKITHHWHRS
Test: ELISA

Q: Which EC50 does the source give for B1 here?
A: > 500 ng/mL

Q: B2 was tested. Which EC50 did it give?
A: > 500 ng/mL

Q: B3 was tested. Which EC50 did it give?
A: > 500 ng/mL

Q: For B4, which EC50 is on record?
A: > 500 ng/mL

Q: Which EC50 does the source give for B5 here?
A: > 500 ng/mL

Q: B6 was tested. Which EC50 did it give?
A: 267 ng/mL

Q: With B7 as the binder, how does the EC50 read?
A: 7.1 ng/mL

Q: For B8, which EC50 is on record?
A: 335 ng/mL

Q: Which EC50 does the source give for B9 here?
A: 10 ng/mL

Q: Which EC50 does the source give for B10 here?
A: 8.4 ng/mL

Q: For B11, which EC50 is on record?
A: 39 ng/mL

Q: For B12, which EC50 is on record?
A: > 500 ng/mL

Q: With B13 as the binder, how does the EC50 read?
A: 4.8 ng/mL

Q: B14 was tested. Which EC50 did it give?
A: 3.9 ng/mL

Q: Which EC50 does the source give for B15 here?
A: 3.4 ng/mL

Q: How did the EC50 turn out when B16 was run?
A: 215 ng/mL

Q: For B17, which EC50 is on record?
A: 4.1 ng/mL

Q: With B18 as the binder, how does the EC50 read?
A: 5.9 ng/mL

Q: Which EC50 does the source give for B19 here?
A: 11.2 ng/mL
